Details in all cases: both partners purified
Test [1] has as its target T1, PD-1-ECD (PD-1-E. coli), extracellular domain of programmed cell death protein 1 expressed in E. coli (Homo sapiens, UniProt Q15116).
T1 construct: PD-1 (programmed cell death protein 1), extracellular domain, UniProt Q15116, residues L25-R147; no glycan, no post-translational modification; Cloned into pET-21a(+); also called non-glycosylated PD-1
Put plainly: SPR; BIAcore8000, CM5 chip, room temperature; cemiplimab-scFv (695 RU) or camrelizumab-scFv (569 RU) immobilised; PD-1 forms flowed over (PD-1-WT 0-100 nM, PD-1-N58A 50-800 nM, PD-1-E. coli 0-8 μM); 1:1 Langmuir model. For orientation: In SPR one partner is held on a chip, and binding of the other changes the refractive index at the surface.

The target in test [2] is T2, PD-1-N58A, extracellular domain of PD-1 (residues L25-R147) with N58A, expressed in 293F cells (Homo sapiens, UniProt Q15116, N58A, glycosylated in 293F cells, specifically deficient in N58 glycosylation).
T2 construct: programmed cell death protein 1 (PD-1), extracellular domain, residues L25-R147 of UniProt Q15116, N58A; also called N58A-mutated PD-1; N58 glycosylation-deficient PD-1; not shown: His6, C-terminal, kept
Put plainly: SPR; cemiplimab-scFv (695 RU) or camrelizumab-scFv (569 RU) immobilised on a CM5 chip, PD-1 forms flowed over (PD-1-WT 0-100 nM, PD-1-N58A 50-800 nM, PD-1-E. coli 0-8 uM); BIAcore 8000, room temperature; 1:1 Langmuir binding model; mean of three repeats.

Test [3] has as its target T3, PD-1-E. coli, extracellular domain of PD-1 (residues L25-R147) expressed in E. coli (Homo sapiens, UniProt Q15116).
T3 construct: programmed cell death protein 1 (PD-1), extracellular domain, residues L25-R147 of UniProt Q15116; no glycans (E. coli); Cloned into pET-21a(+); also called PD-1-ECD; non-glycosylated PD-1
Described as above.

What is called Kd is the free concentration of one partner at which half of the binding sites on the other are occupied at equilibrium, for simple one-to-one binding. As usually defined, the koff is a measure of how fast the partners let go of each other. A high value points to fast dissociation.

T2 sequence (Q15116 25-147 N58A): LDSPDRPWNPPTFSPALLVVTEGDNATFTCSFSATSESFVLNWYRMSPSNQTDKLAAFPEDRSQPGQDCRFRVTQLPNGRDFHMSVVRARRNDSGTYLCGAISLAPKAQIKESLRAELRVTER
T1 sequence (Q15116 25-147): as the sequence (Q15116 25-147 N58A) above, with A34N counted along it
T3 sequence (Q15116 25-147): as the sequence (Q15116 25-147 N58A) above, with A34N counted along it

B1: cemiplimab-scFv (single-chain variable fragment of cemiplimab, VL-(GGGGS)4-VH) (scFv, V domains shown)
VH: EVQLLESGGVLVQPGGSLRLSCAASGFTFSNFGMTWVRQAPGKGLEWVSGISGGGRDTYFADSVKGRFTISRDNSKNTLYLQMNSLKGEDTAVYYCVKWGNIYFDYWGQGTLVTVSS
VL: DIQMTQSPSSLSASVGDSITITCRASLSINTFLNWYQQKPGKAPNLLIYAASSLHGGVPSRFSGSGSGTDFTLTIRTLQPEDFATYYCQQSSNTPFTFGPGTVVDFR
notes: VL of cemiplimab; linker, printed as GGGGS (4); VH of cemiplimab; Cloned into pET-21a(+); Used in the crystal and, by the SPR methods, immobilised on the CM5 chip; also called REGN2810; Libtayo
For the molecule B1, the Kd in test [1] came to 691 nM.

B2: cemiplimab-scFv, single-chain variable fragment of cemiplimab (VL-(GGGGS)4-VH) (scFv, V domains shown)
VH: EVQLLESGGVLVQPGGSLRLSCAASGFTFSNFGMTWVRQAPGKGLEWVSGISGGGRDTYFADSVKGRFTISRDNSKNTLYLQMNSLKGEDTAVYYCVKWGNIYFDYWGQGTLVTVSS
VL: DIQMTQSPSSLSASVGDSITITCRASLSINTFLNWYQQKPGKAPNLLIYAASSLHGGVPSRFSGSGSGTDFTLTIRTLQPEDFATYYCQQSSNTPFTFGPGTVVDFR
notes: VL of cemiplimab; structure of the cemiplimab-scFv/PD-1 complex deposited as PDB 7WVM; linker, printed as GGGGS (4); VH of cemiplimab; Cloned into pET-21a(+); also called REGN2810; Libtayo
Consider B2, for which the koff in test [2] was 0.0274 s⁻¹; in test [3], 0.047 s⁻¹.

B3: camrelizumab-scFv (scFv, V domains shown)
VH: EVQLVESGGGLVQPGGSLRLSCAASGFTFSSYMMSWVRQAPGKGLEWVATISGGGANTYYPDSVKGRFTISRDNAKNSLYLQMNSLRAEDTAVYYCARQLYYFDYWGQGTTVTVSS
VL: DIQMTQSPSSLSASVGDRVTITCLASQTIGTWLTWYQQKPGKAPKLLIYTATSLADGVPSRFSGSGSGTDFTLTISSLQPEDFATYYCQQVYSIPWTFGGGTKVEIK
notes: scFv of camrelizumab; Named only in the SPR methods
B3 registered a Kd in test [1] of 2630 nM.

B4: camrelizumab-scFv (scFv, V domains shown)
VH: EVQLVESGGGLVQPGGSLRLSCAASGFTFSSYMMSWVRQAPGKGLEWVATISGGGANTYYPDSVKGRFTISRDNAKNSLYLQMNSLRAEDTAVYYCARQLYYFDYWGQGTTVTVSS
VL: DIQMTQSPSSLSASVGDRVTITCLASQTIGTWLTWYQQKPGKAPKLLIYTATSLADGVPSRFSGSGSGTDFTLTISSLQPEDFATYYCQQVYSIPWTFGGGTKVEIK
notes: scFv of camrelizumab
For the molecule B4, the koff in test [2] was 0.171 s⁻¹; in test [3] it was 0.308 s⁻¹.

The values are drawn from paper PMC8924070 (Frontiers in Immunology, 2022).
